According to article PMC5477490:

Tests used:
[1] = biological target: HA ectodomain of A/Washington/05/2011(H1N1) (influenza A virus A/Washington/05/2011(H1N1)); test: crystal structure
[2] = biological target: HA ectodomain of A/Washington/05/2011(H1N1) (influenza A virus A/Washington/05/2011(H1N1)); test: not stated; purified HA ectodomain in solution; data in Supplementary Fig. 2
[3] = biological target: 3E1 Fab, P01857;P01834; conditions: parent: est. 100; read off a plot

| Substance | stoichiometry N [1] | stoichiometry N [2] | percent of parent [3] |
| --- | --- | --- | --- |
| HA ectodomain of A/Washington/05/2011(H1N1) (domain or fragment) | 3 | 3 |  |
| full-length, wild-type HA from A/Washington/05/2011 (H1N1) HA1:H18Q |  |  | 1% |
| full-length, wild-type HA from A/Washington/05/2011 (H1N1) HA1:NAT |  |  | 2% |
| full-length, wild-type HA from A/Washington/05/2011 (H1N1) HA2:D19N |  |  | 7% |
| full-length, wild-type HA from A/Washington/05/2011 (H1N1) HA2:I45F |  |  | 1% |
